Key:
C5L2 [1] = target: T1, C5L2 (Homo sapiens, UniProt Q9P296); test: Triglyceride synthesis (3H oleate incorporation) in HEK293 cells stably transfected with C5L2; format: cell-based
T1 construct: expressed in transfected cells
Method: FIG. 15: Functional Response of HEK293 Cells Stably Transfected with C5L2 to ASP and Insulin: Cells were tested for response to ASP and insulin stimulation of triglyceride synthesis with 100 μM ^3H oleate for 4 hours. Results are calculated as nmol ^3H oleate incorporated into triglyceride/mg cell protein where 0 ASP is set as 100%. […] As in many biologic assays, the concentration required for activity at 37° C. under dynamic conditions is greater than the binding affinity (which is assessed at 4° C. under static conditions). For example, insulin Kd is in the pM range, but nM concentrations are required for activity. ASP Kd is high nM range, but biologic activity is in low μM range.

C5L2 [2] = target: T1, C5L2; test: Competition binding with 125I-C3a, C5L2-transfected RBL cells; conditions: for IC50 / pD2 ± SE: C5L2 (^125I-C3a) expressed in RBL cells, 50 pM radioligand
Method: (§1) FIG. 1 illustrates C3a des-Arg^77 and C4a des-Arg^77 bind to RBL cells expressing C5L2. RBL cells transfected with C5L2 were incubated with the stated concentrations of complement fragments for 10 min prior to the addition of 50 pM ^125I-C3a (A) or 50 pM ^125I-C5a (B). Results are the means of n (n shown in Table 1) separate experiments performed in duplicate±S.E.;
(§2) C5L2, C3aR and CD88-transfected RBL cells were produced as described (17). G16 was cloned from human monocytes mRNA and authenticated by sequencing. Human G16 and either C5L2 or CD88 were ligated into the bicistronic expression vector pIRES (Qiagen). Stable transfection of RBL-2H3 cells with pIRES constructs was achieved by electroporation (18). Cells underwent three rounds of fluorescence-activated cell sorting using anti-CD88 antibody (clone S5/1; Serotec) or anti-hemagglutinin peptide antibody (Roćhe Molecular Biochemicals, clone 12CA5), selecting the top 5% of receptor-positive cells in each round.
(§3) Competition binding assays were performed using 50 pM ^125I-C5a or ^125I-C3a (NEN) on adherent C5aR-transfected or C5L2-transfected RBL cells in 96-well microtiter plates (55 000/well) at 4° C. as described previously (22). Competition curves were generated by pre-incubating adherent cells with increasing concentrations of unlabelled complement fragments. The IC50, standard error values and linear regression analyses were obtained by using GraphPad Prism 2.0.

C5L2 [3] = target: T1, C5L2; test: Degranulation (β-hexosaminidase) and enhancement of IgE-receptor-mediated degranulation, C5L2-transfected RBL cells; format: cell-based
CD88 [4] = target: T2, CD88 (Homo sapiens, UniProt P21730); test: Degranulation of CD88-transfected RBL cells; format: cell-based
T2 construct: expressed in transfected cells
T2 sequence (P21730 1-350): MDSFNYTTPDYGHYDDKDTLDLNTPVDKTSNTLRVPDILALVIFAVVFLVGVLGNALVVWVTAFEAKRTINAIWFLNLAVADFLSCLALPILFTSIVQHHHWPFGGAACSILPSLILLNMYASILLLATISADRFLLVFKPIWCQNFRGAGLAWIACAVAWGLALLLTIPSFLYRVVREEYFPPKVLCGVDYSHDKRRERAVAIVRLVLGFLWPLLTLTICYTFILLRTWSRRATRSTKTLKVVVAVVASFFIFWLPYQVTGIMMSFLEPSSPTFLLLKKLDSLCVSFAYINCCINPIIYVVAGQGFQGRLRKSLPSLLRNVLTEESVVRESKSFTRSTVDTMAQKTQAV

CD88 [5] = target: T2, CD88; test: Radiolabelled ligand competition receptor binding, CD88-transfected RBL cells
Text: as §2, §3

C3aR [6] = target: T3, C3aR (Homo sapiens, UniProt Q16581); test: Radiolabelled ligand competition receptor binding, C3aR-transfected RBL cells
T3 construct: expressed in transfected cells
T3 sequence (Q16581 1-482): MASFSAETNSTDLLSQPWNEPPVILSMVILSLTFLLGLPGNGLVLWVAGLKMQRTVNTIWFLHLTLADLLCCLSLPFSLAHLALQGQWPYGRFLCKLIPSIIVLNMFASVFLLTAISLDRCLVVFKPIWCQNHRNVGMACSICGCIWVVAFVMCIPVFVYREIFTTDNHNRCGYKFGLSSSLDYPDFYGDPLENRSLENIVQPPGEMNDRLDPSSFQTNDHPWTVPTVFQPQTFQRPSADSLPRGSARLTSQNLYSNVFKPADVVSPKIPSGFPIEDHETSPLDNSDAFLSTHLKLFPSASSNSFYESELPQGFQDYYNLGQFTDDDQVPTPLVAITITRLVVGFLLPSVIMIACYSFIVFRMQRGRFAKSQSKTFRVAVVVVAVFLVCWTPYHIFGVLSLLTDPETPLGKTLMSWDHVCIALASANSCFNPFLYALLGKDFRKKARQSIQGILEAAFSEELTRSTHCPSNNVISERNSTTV
Text: as §2, §3

C3aR [7] = target: T3, C3aR; test: Degranulation of C3aR-transfected RBL cells; format: cell-based; conditions: RBL cells transfected with C3aR; data not shown
Method: (§4) Cellular activation was measured as the release of -hexosaminidase from intracellular granules (20). In the enhancement of degranulation assay, cells were treated with 1 μg/ml IgE^DNP (21) overnight, then with chemoattractants or peptides for 10 min prior to stimulation with 100 ng/ml DNP-HSA (Sigma) for 15 minutes. EC50 and standard error values were obtained by iterative curve fitting using GraphPad Prism 2.0.

C5L2 [8] = target: T1, C5L2; test: Competition binding with 125I-C5a, C5L2-transfected RBL cells
Method: as §1, §2, §3

[9] = target: T4, human formyl peptide-like receptor-1 (Homo sapiens, UniProt P25090); test: Enhancement of degranulation, RBL cells transfected with an irrelevant receptor; format: cell-based; conditions: RBL cells transfected with FPRL-1, FIG. 3B
T4 construct: expressed in transfected cells; host or cells: RBL cells
T4 sequence (P25090 1-351): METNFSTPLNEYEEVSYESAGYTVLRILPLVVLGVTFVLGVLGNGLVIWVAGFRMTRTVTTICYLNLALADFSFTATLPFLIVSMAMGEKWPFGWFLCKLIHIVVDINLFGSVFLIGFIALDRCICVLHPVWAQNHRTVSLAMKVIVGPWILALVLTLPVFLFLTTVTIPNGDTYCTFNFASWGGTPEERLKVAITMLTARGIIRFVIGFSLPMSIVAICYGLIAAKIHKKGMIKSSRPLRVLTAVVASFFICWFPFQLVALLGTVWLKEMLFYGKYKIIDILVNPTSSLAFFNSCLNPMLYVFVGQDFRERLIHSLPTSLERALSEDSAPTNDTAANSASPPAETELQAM
Method: FIG. 3 illustrates C3a des-Arg^77 enhances the degranulation response to cross-linkage of the high affinity IgE receptor in cells transfected with C5L2. RBL cells transfected with A), C5L2 or B), an irrelevant receptor (human formyl peptide-like receptor-1) were incubated overnight with […] IgE^DNP and then treated with the stated concentrations of C5a des-Arg^74, C4a des-Arg^77 or C3a des-Arg^77 or ASP for 15 minutes prior to the addition of the cross-linking agent, HSA-DNP at 100 ng/ml. Degranulation was assessed as the secretion of β-hexosaminidase. Results are shown as a percentage of the release stimulated by 100 ng/ml HSA-DNP in the absence of anaphylatoxin (control=1) and are means of 3-6 separate experiments performed in triplicate, ±S.E.
as §4

C5L2 [10] = target: T1, C5L2; test: Fluorescent ligand binding/uptake (FACS), HEK 293 cells transiently transfected with C5L2
Method: (§5) HEK 293 cells were transfected with C3aR (A) or C5L2 (B) and three days later cells were incubated for 30 minutes with the indicated concentrations of FLUOS-labelled C3a or ASP, respectively. Binding/uptake was assessed by FACS, and the percentage of cells above a fluorescence intensity of 8 was determined. The fluorescence histograms at the highest and lowest ligand concentrations are shown in the insets;
(§6) HEK 293 cells were seeded into 6-well plates at 1×10^6 cells/well the day before transfection. C5L2 in vector pEE6hCMV.neo (Celltech) or C3aR in vector pcDNA1/AMP (Invitrogen) at 2 μg DNA/well were transfected with Lipofectamine2000 (5 μl/well) (Invitrogen) according to the manufacturer's protocol. Cells were assayed for binding/uptake three days post-transfection.
(§7) ASP or C3a was labelled with FLUOS (Roche Biochemicals) at a molar ratio of 1:10 (ligand:FLUOS) for two hours according to the manufacturer's recommendations. Labelled ligand was separated from free FLUOS on a Sephadex G25M column and stored in aliquots at −80° C.
(§8) Cells were incubated with the indicated concentrations of FLUOS-labelled ASP or C3a for 30 minutes at 37° C. in binding buffer (23) and washed three times with cold binding buffer. Cells were then detached with 0.25% trypsin/0.02% EDTA in PBS, fixed with 1% paraformaldehyde, washed with PBS, and assayed by fluorescence-activated cell scanning.

C3aR [11] = target: T3, C3aR; test: Fluorescent ligand binding/uptake (FACS), HEK 293 cells transiently transfected with C3aR; conditions: HEK 293 transiently transfected with C3aR; mean±SD, n=3
Method: as §5, §6, §7, §8

CD88+Gα16 = target: T5, CD88+Gα16 (Homo sapiens, UniProt P21730); test: Degranulation of CD88+Gα16 co-transfected RBL cells; format: cell-based; conditions: 10 ng/ml PT
T5 construct: expressed in transfected cells
T5 sequence (P21730 1-350): T2 sequence (P21730 1-350)

[12] = HEK-C5L2 stable transfectants, 100 μM ^3H oleate, 4 hours
[13] = C5L2 (^125I-C5a) expressed in RBL cells, 50 pM radioligand

T1 sequence (Q9P296 whole entry): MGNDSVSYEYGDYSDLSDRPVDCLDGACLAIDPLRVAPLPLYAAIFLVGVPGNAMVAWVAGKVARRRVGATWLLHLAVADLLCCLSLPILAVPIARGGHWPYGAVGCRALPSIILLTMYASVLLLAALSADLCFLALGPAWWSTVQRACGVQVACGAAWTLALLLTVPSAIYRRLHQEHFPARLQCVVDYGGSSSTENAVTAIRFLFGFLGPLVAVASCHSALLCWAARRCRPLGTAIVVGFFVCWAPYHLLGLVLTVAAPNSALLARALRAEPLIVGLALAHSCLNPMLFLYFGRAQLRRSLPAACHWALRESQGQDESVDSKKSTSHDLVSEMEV

## ASP: Plasma ASP (C3a des-Arg^77), human C3a des-Arg^77 purified as acylation-stimulating protein
C5L2 [1]; 37° C. under dynamic conditions
  concentration for biologic activity: low μM range
C5L2 [1]; [12]
  stimulation of triglyceride synthesis: increasing triglyceride synthesis in a concentration dependent manner
C5L2 [1]; non-transfected HEK cells
  stimulation of triglyceride synthesis: not responsive to ASP
C5L2 [2]; binding affinity assessed at 4° C. under static conditions
  Kd: high nM range
C5L2 [3]; enhancement of IgE-mediated degranulation, FIG. 3A
  EC50 compared with recombinant C3a des-Arg^77: identical EC50

## C3a des-Arg^77
CD88 [4]; RBL cells transfected with CD88, data not shown
  stimulation of degranulation: neither C3a des-AXg^77 nor C4a des-Arg^77 can stimulate degranulation
CD88 [5]
  competition with ^125I-C5a binding to CD88: cannot compete effectively
C5L2 [2]
  IC50: 0.526 µM
  pD2 ± SE: 6.24 ± 0.10
C5L2 [2]; FIG. 1A
  competition with ^125I-C3a for C5L2 binding: can compete strongly
C3aR [6]; Table I
  affinity for C3aR: no detectable affinity
C3aR [7]
  stimulation of degranulation: neither C3a des-AXg^77 nor C4a des-Arg^77 can stimulate degranulation
C5L2 [3]; without IgE receptor cross-linking, data not shown
  direct stimulation of degranulation: neither recombinant nor purified C3a des-Arg^77 (or any other ligand) is able to directly stimulate degranulation
C5L2 [8]; [13]
  IC50: 18 µM
  pD2 ± SE: 4.73 ± 0.16
C5L2 [8]; FIG. 1B
  competition with ^125I-C5a binding to C5L2: cannot compete effectively
[9]
  enhancement of degranulation: small enhancement of degranulation

## C3a: 77 amino acid complement fragment
CD88 [5]; CD88 expressed in RBL cells, competition binding, 4° C., read-out: IC50 (concentration of unlabelled ligand resulting in 50% of maximal radioligand binding)
  IC50: 23 µM
C5L2 [2]
  IC50: 0.167 µM
  pD2 ± SE: 6.78 ± 0.10
C5L2 [8]; [13]
  IC50: 23 µM

## FLUOS-ASP: ASP labelled with FLUOS at a molar ratio of 1:10
C5L2 [10]; HEK 293 transiently transfected with C5L2, 30 minutes at 37° C., flow cytometry, read-out: half maximal fluorescence intensity (binding/uptake)
  Kd: ~0.003 µM
C5L2 [10]; mock-transfected HEK 293 cells, 10 nM
  binding to mock-transfected cells: no binding
C3aR [11]
  binding (basal binding=100%): 103%±14%

## ^125I-ASP: ^125I-labelled ASP [reference compound]
C3aR [6]; ^125I-labelled ligand, data not shown
  binding to C3aR-transfected cells: does not bind to C3aR-transfected cells

## insulin
C5L2 [1]; [12]
  stimulation of triglyceride synthesis: neither HEK nor HEK-C5L2 are responsive to insulin
C5L2 [1]; non-transfected HEK cells
  stimulation of triglyceride synthesis: neither HEK nor HEK-C5L2 are responsive to insulin

## pertussis toxin [reference compound]
CD88 [4]; CD88 alone, 0-10 ng/ml PT for 4 h prior to 50 nM C5a
  effect on degranulation response to C5a: inhibited the degranulation response
CD88+Gα16
  effect on degranulation response to C5a: a small inhibition of degranulation
C5L2 [3]; C5L2 alone, 10 ng/ml PT for 4 h, FIG. 4C
  effect on enhancement of degranulation by ASP/C3a des-Arg^77: can be inhibited by pre-treating cells with pertussis toxin

From patent US20060121462A1, “Receptor and screening methods” (priority 2003, published 2006)
